Consider one molecule from patent US20150322149A1 (Hoffmann-La Roche, published 2015).

Assay [1] deals with T1, recombinant mouse transferrin receptor (mTfR), extracellular domain (mouse, UniProt Q62351 89-763).
T1 construct: extracellular domain; Bought protein; also called murine Transferrin receptor 1
As to the kind of experiment: indirect ELISA on coated recombinant mTfR extracellular domain. As for the experimental part:
Binding of mAb31-8D3 constructs to mouse transferrin receptor (mTfR) was assessed by indirect ELISA. To this end, recombinant mTfR (extracellular domain; Sino Biological) was coated to Maxisorb microtiter plate (Nunc) at 1 μg/mL in PBS at 4° C. overnight. After blocking in 1% Cro-tein-C/PBS (blocking buffer; Roche) for 1 h at RT and 4 washes with 0.1% Tween-20/PBS (wash buffer), mAb31-8D3 constructs were added to the wells at concentrations between 0.01 and 150 nM in blocking buffer and incubated for 1 h at RT. After 4 wash steps, constructs were detected by addition of anti-human-IgG-HRP (Jackson Immunoresearch) at 1:10,000 dilution in blocking buffer […], followed by 6 washes and incubation in TMB (Sigma). Absorbance was read out at 450 nm after stopping color development with 1 N HCl.

For assay [2], the target named is T2, Abeta(1-40), fibrillar, immobilized (UniProt P05067 672-711).
T2 construct: domain: Abeta(1-40); Numbers 1-40 count on the Abeta peptide, not on the APP precursor; also called Abeta fibrils; fibrillar Abeta
As to the kind of experiment: ELISA on coated fibrillar Abeta(1-40). As for the experimental part: Functionality of mAb31 was confirmed by ELISA. Briefly, Abeta(1-40) was coated at 7 μg/mL in PBS onto Maxisorp plates for 3 days at 37° C. to produce fibrillar Abeta, then dried for 3 h at RT. The plate was blocked with 1% Crotein C and 0.1% RSA in PBS (blocking buffer) for 1 h at RT, then washed once with wash buffer. mAb31 constructs were added at concentrations up to 100 nM in blocking buffer and incubated at 4° C. overnight. After 4 wash steps, constructs were detected as indicated above.

T2 sequence (P05067 672-711 limits assumed): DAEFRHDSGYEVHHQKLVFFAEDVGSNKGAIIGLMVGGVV
T1 sequence (Q62351 89-763): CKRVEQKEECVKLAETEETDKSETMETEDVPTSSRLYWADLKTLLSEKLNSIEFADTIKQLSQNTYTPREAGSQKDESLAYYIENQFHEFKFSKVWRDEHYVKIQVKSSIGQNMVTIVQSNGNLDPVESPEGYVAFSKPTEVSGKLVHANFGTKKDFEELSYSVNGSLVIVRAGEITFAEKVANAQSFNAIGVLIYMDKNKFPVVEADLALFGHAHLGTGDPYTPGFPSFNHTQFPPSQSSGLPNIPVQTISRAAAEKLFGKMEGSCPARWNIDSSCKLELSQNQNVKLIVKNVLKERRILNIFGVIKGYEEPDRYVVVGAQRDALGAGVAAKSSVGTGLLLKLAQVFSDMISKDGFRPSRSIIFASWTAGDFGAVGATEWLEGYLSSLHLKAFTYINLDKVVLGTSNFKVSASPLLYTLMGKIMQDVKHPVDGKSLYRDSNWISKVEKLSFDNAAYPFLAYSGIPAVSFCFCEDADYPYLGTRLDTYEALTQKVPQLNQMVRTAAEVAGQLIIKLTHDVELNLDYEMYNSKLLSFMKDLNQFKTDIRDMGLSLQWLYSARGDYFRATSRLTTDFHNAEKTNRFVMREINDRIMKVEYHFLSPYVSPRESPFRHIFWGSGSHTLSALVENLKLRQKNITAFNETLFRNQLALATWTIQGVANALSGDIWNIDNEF

B1: mAb31 (human monoclonal antibody recognizing Abeta; INN Gantenerumab) (antibody, V domains shown)
VH: QVELVESGGGLVQPGGSLRLSCAASGFTFSSYAMSWVRQAPGKGLEWVSAINASGTRTYYADSVKGRFTISRDNSKNTLYLQMNSLRAEDTAVYYCARGKGNTHKPYGYVRYFDVWGQGTLVTVSS
VL: DIVLTQSPATLSLSPGERATLSCRASQSVSSSYLAWYQQKPGQAPRLLIYGASSRATGVPARFSGSGSGTDFTLTISSLEPEDFATYYCLQIYNMPITFGQGTKVEIKR
notes: also called anti-Aβ monoclonal antibody mAb31
For the molecule B1, the binding result in assay [1] is “no binding (tested: 0.01 to 150 nM)”; in assay [2], “binds”.
